Measured values published in PMC11373624, “Development and preclinical characterization of a novel radiotheranostic EphA2-targeting bicyclic peptide” (Theranostics, 2024).
Numbered stars: 1 amine (or outer) side, 2 acyl side, 3 side chain; on linkers, the order of the positions; unused ones are H or OH. Bridge positions count the residues as written; N and C are the ends. Square brackets hold non-standard residues; d marks the D form. Peptide text beside a SMILES is read from it. * marks the point of attachment. DOTA = O=C(O)CN1CCN(CC(=O)O)CCN(CC(=O)*)CCN(CC(=O)O)CC1; TATA = O=C(CC[*:1])N1CN(C(=O)CC[*:2])CN(C(=O)CC[*:3])C1; Hyp = O=C(O)[C@@H]1C[C@@H](O)CN1; hArg = N=C(N)NCCCC[C@H](N)C(=O)O; Cba = N[C@@H](CC1CCC1)C(=O)O; βAla = NCCC(=O)O; Sar = CNCC(=O)O

Legend:
MCF-7 tumor xenograft = details: mouse, in vivo
Protocol: (§1) PET/MR imaging was performed in 8-week-old female BALC/c nu/nu mice (Charles River, Germany) which were subcutaneously inoculated on the right upper flank with 10^6 cells (1:1 in PBS:Matrigel). Tumor growth was monitored, and once size was approx. 300-500 mm^3, 150 pmol of [^68Ga]Ga-BCY18469 (4 - 9 MBq) was injected intravenously via tail vein with subsequent imaging performed under isoflurane anesthesia. For the PET imaging experiments with blocking, an excess (15 nmol) of non-radiolabeled BCY18469 was injected 5 mins before the injection of 300 pmol (4 MBq) of the ^68Ga-labeled compound. PET imaging consisted of a dynamic scan from 0 to 60 min p.i. (30 frames), followed by non-triggered localizer and a 3-step whole body T1-weighed 3D MR-scan (PET/MR 3T, Bruker BioSpin, Germany). Additionally, a 2 h p.i. static image (10 min scan) was recorded, followed by the same MR scan protocol. Data was obtained via ParaVision 3.0 and reconstructed using a Maximum-Likelihood Expectation-Maximization (MLEM) algorithm at 0.5 mm for 18 iterations. Reconstructed data was analyzed with PMOD 3.7.

in vivo [1] = details: female, BALC/c nu/nu, mouse, iv, 150 pmol, total radioactivity
Protocol: as §1

in vitro [2] = format: in vitro ADME; details: plasma
Protocol: Determination of stability in plasma was performed with the ^177Lu-labeled peptide. 10 µL of the labeled compound were added into human or mouse plasma (mouse: BioIVT, United Kingdom, human: Sigma Aldrich, Germany) and incubated at 37 °C. Aliquots were taken at different time points during incubation (1, 6, 24, 48 and 72 h) to which acetonitrile (30 μL) was added in order to precipitate plasma proteins. After centrifugation at 13,000 rpm for 5 min at r.t. the supernatant was taken and analyzed via HPLC.

in vitro [3] = format: in vitro ADME; details: human, plasma, plasma protein binding
Protocol: To determine binding to plasma proteins, BCY18469 was labeled with ^68Ga (apparent molar activity 1 GBq/µmol). Thereafter, 10 µL of the labeling mixture were added to 100 µL of mouse or human plasma (mouse: BioIVT, United Kingdom, human: Sigma Aldrich, Germany). The mixture was left for 15 min at room temperature. Afterwards, the plasma was loaded into an ultrafiltration device (Amicon Ultra 0.5ml - 30 kDa, Merck, Germany) and centrifuged at 14,000 rpm for 30 min at r.t. The filtrate and the membrane were measured in a gamma counter (Wizard2, Perkin Elmer, Germany). The amount of plasma-bound compound was calculated based on the counts in the […] relative to the total counts (filtrate + membrane).

HT1080 cells = assay: Cell surface binding and internalization assay; format: cell-based, human; details: listed as 68Ga-BCY18469
Protocol: To assess internalization and specificity, HT1080 cells (10^5 cells/well) were seeded in a 24-well plate coated with poly-L-lysine one day before the experiment. […] To determine specific uptake, 'cold' (non-radiolabeled) BCY18469 was added to half of the wells at an excess concentration of 10 µM/well or, alternatively, the cells were kept at 4 °C during the experiment. Following the incubation, the cells were thoroughly rinsed with cold PBS (3 x 1 mL). Subsequently, surface bound radioactivity was removed by washing with 50 mM glycine (pH 2.8, 2 x 500 µL). Finally, the internalized fraction was determined by lysing the cells with 0.5 M NaOH (500 µL). All fractions were collected and measured using a gamma counter (Perkin Elmer Wizard2, Germany). All counts were standardized to the initial activity, and specific surface binding as well as specific internalization were calculated by subtracting the non-specific binding values obtained from the wells treated with an excess of 'cold' compound. Results were calculated and expressed as %AA/10^5 cells (% applied activity/10^5 cells).

in vivo [4] = details: male, athymic nude, mouse
Protocol: (§2) SPECT/CT imaging was performed in three 5- to 8-week-old male athymic nude mice (Janvier Labs, UK) which were subcutaneously inoculated on the right upper flank with 5 x 10^6 PC-3 cells (1:1 in PBS:Matrigel). Tumor growth was monitored, and once size was approx. 200 - 500 mm^3, mice were injected intravenously via tail vein with 230 pmol of [^111In]In-BCY18469 (5.3 ± 0.2 MBq). Mice were imaged under isoflurane anesthesia using whole-body static SPECT followed by a CT at each timepoint (30 min SPECT scan time starting at 1h and 24h p.i.). Reconstructed images were generated in units of activity. Namely, the values assigned to the voxels (volume elements) comprising the 3D reconstructed SPECT images were in units of MBq or equivalent. Reconstructed images were processed with VivoQuant (Invicro). Whole body maximum intensity projection (MIP) images were generated using VivoQuant.

PC-3 tumor xenograft = assay: in vivo; details: male, athymic nude, mouse
Protocol: as §2

[5] = 4°C, block with 10 µM non-labeled compound
[6] = total radioactivity, Liver uptake

**Q.** What does the source list for `CC(C)C[C@@H]1NC(=O)[C@@H]2CSCCC(=O)N3CN(CN(C3)C(=O)CCSC[C@H](NC(=O)[C@H](CC(=O)O)NC(=O)[C@H](CCCCNC(=N)N)NC(=O)[C@H](C)NC(=O)CN(C)C(=O)CN(C)C(=O)CN(C)C(=O)CN(C)C(=O)CN(C)C(=O)CN(C)C(=O)CN(C)C(=O)CN(C)C(=O)CN(C)C(=O)CN(C)C(=O)CCNC(=O)CN3CCN(CC(=O)O)CCN(CC(=O)O)CCN(CC(=O)O)CC3)C(=O)N3C[C@H](O)C[C@H]3C(=O)N[C@@H](CC3CCC3)C(=O)N[C@@H](C(C)C)C(=O)N[C@@H](CC(N)=O)C(=O)N3CCC[C@H]3C(=O)N[C@@H](CC(C)C)C(=O)N2)C(=O)CCSC[C@@H](C(N)=O)NC(=O)[C@H](CCCCNC(=N)N)NC(=O)[C@H](Cc2c[nH]c3ccccc23)NC(=O)[C@@H](CC(=O)O)NC(=O)[C@@H]2CCCN2C(=O)[C@H](Cc2c[nH]cn2)NC1=O` [[68Ga]Ga-BCY18469, metal not drawn] ({DOTA-βAla}-[Sar][Sar][Sar][Sar][Sar][Sar][Sar][Sar][Sar][Sar]A[hArg]DC[Hyp][Cba]VNPLCLHP[dD]W[hArg]C-NH2; linker 14-21-28 via TATA)?
**A.** uptake in the tumor (MCF-7 tumor xenograft): no uptake; SUV (in vivo [1]; Bladder uptake): 0.41 SUV; SUV (in vivo [1]; Kidneys uptake): 3.15 SUV; SUV (in vivo [1]; Liver uptake): 1.13 SUV; SUV at 1 h (in vivo [1]; Tumor SUVbw): 1.7 SUV; SUV at 2 h (in vivo [1]; Tumor SUVbw): 1.2 SUV; SUV (in vivo [1]; Tumor uptake): 0.67 SUV; remaining at 72 h (in vitro [2]; human): 94%; remaining at 72 h (in vitro [2]; mouse): 40%; fraction unbound at 15 min (in vitro [3]): ~0.5; Cell Surface B 4°C (HT1080 cells; [5]): 0.03 ± 0.01 %AA/10^5 cells; Internalization B 4°C (HT1080 cells; [5]): 0.01 ± 0.00 %AA/10^5 cells; Cell Surface 4°C (HT1080 cells; 4°C): 0.47 ± 0.01 %AA/10^5 cells; Internalization 4°C (HT1080 cells; 4°C): 0.05 ± 0.01 %AA/10^5 cells; Cell Surface (HT1080 cells; 37°C, 45 min, 30 nM): 0.53 ± 0.03 %AA/10^5 cells; Internalization (HT1080 cells; 37°C, 45 min, 30 nM): 0.18 ± 0.05 %AA/10^5 cells; Internalization B (HT1080 cells; 37°C, block with 10 µM non-labeled compound): 0.06 ± 0.00 %AA/10^5 cells

**Q.** For `CC(C)C[C@@H]1NC(=O)[C@@H]2CSCCC(=O)N3CN(CN(C3)C(=O)CCSC[C@H](NC(=O)[C@H](CC(=O)O)NC(=O)[C@H](CCCCNC(=N)N)NC(=O)[C@H](C)NC(=O)CN(C)C(=O)CN(C)C(=O)CN(C)C(=O)CN(C)C(=O)CN(C)C(=O)CN(C)C(=O)CN(C)C(=O)CN(C)C(=O)CN(C)C(=O)CN(C)C(=O)CCNC(=O)CN3CCN(CC(=O)O)CCN(CC(=O)O)CCN(CC(=O)O)CC3)C(=O)N3C[C@H](O)C[C@H]3C(=O)N[C@@H](CC3CCC3)C(=O)N[C@@H](C(C)C)C(=O)N[C@@H](CC(N)=O)C(=O)N3CCC[C@H]3C(=O)N[C@@H](CC(C)C)C(=O)N2)C(=O)CCSC[C@@H](C(N)=O)NC(=O)[C@H](CCCCNC(=N)N)NC(=O)[C@H](Cc2c[nH]c3ccccc23)NC(=O)[C@@H](CC(=O)O)NC(=O)[C@@H]2CCCN2C(=O)[C@H](Cc2c[nH]cn2)NC1=O` [[111In]In-BCY18469, metal not drawn] ({DOTA-βAla}-[Sar][Sar][Sar][Sar][Sar][Sar][Sar][Sar][Sar][Sar]A[hArg]DC[Hyp][Cba]VNPLCLHP[dD]W[hArg]C-NH2; linker 14-21-28 via TATA), which tissue uptake at 1 h (in vivo [4]; Bladder uptake) is on record?
**A.** 207 %ID/g

**Q.** What about the tissue uptake at 24 h (in vivo [4]; Bladder uptake) of the same molecule?
**A.** 4.2 %ID/g

**Q.** What about the tissue uptake at 1 h (in vivo [4]; Heart uptake) of the same molecule?
**A.** 0.03 %ID/g

**Q.** And the tissue uptake at 24 h (in vivo [4]; Heart uptake)?
**A.** 0.03 %ID/g

**Q.** What about the tissue uptake at 1 h (in vivo [4]; Kidneys uptake) of the same molecule?
**A.** 32 %ID/g

**Q.** What about the tissue uptake at 24 h (in vivo [4]; Kidneys uptake) of the same molecule?
**A.** 17 %ID/g

**Q.** What about the tissue uptake at 24 h (in vivo [4]; Lungs uptake) of the same molecule?
**A.** 0.01 %ID/g

**Q.** What about the tissue uptake at 1 h (in vivo [4]; Muscle uptake) of the same molecule?
**A.** 0.27 %ID/g

**Q.** And the tissue uptake at 24 h (in vivo [4]; Muscle uptake)?
**A.** 0.02 %ID/g

**Q.** What about the tissue uptake at 1 h (in vivo [4]; Spleen uptake) of the same molecule?
**A.** 0.27 %ID/g

**Q.** What about the tissue uptake at 24 h (in vivo [4]; Spleen uptake) of the same molecule?
**A.** 0.4 %ID/g

**Q.** What about the tissue uptake at 1 h (in vivo [4]; Tail uptake) of the same molecule?
**A.** 0.28 %ID/g

**Q.** What about the tissue uptake at 24 h (in vivo [4]; Tail uptake) of the same molecule?
**A.** 0.07 %ID/g

**Q.** What about the tissue uptake at 24 h (in vivo [4]; Tumor uptake) of the same molecule?
**A.** 2.3 %ID/g

**Q.** And the tissue uptake at 1 h (in vivo [4]; [6])?
**A.** 0.13 %ID/g

**Q.** And the tissue uptake at 24 h (in vivo [4]; [6])?
**A.** 0.05 %ID/g

**Q.** What about the tissue uptake at 1 h (in vivo [4]; total radioactivity, Lungs uptake) of the same molecule?
**A.** 0.12 %ID/g

**Q.** And the tissue uptake (in vivo [4]; total radioactivity, Non-target organs uptake)?
**A.** ≤ 1 %ID/g

**Q.** And the tissue uptake at 1 h (in vivo [4]; total radioactivity, Tumor uptake)?
**A.** 5.7 ± 1.5 %ID/g

**Q.** And the Kidneys uptake (PC-3 tumor xenograft; 1 h)?
**A.** 31.9 ± 3.4 %ID/g

**Q.** And the Tumor uptake (PC-3 tumor xenograft; 1 h)?
**A.** 5.72 ± 1.47 %ID/g

**Q.** What about the Tumor uptake (PC-3 tumor xenograft; 24 h) of the same molecule?
**A.** 2.32 ± 0.50 %ID/g
